{"source": "the supplement of paper PMC10567573", "parents": {"B1": {"name": "ANKRD17 (parent)", "chain": "EMVRFLLEAGADQEHKTDEMHTAL"}}}
{"variants_of": "B1", "experiment": "protein stability index of a GFP-peptide fusion (GPS, HEK-293T) (PSI 1-6); higher = more stable", "conditions": "c terminus: a fixed tail appended"}
{"variant": "L24Q", "protein stability index": 3.14}
{"variant": "L24C", "protein stability index": 2.75}
{"variant": "L24A", "protein stability index": 2.75}
{"variant": "L24N", "protein stability index": 3.03}
{"variant": "L24T", "protein stability index": 3.05}
{"variant": "L24M", "protein stability index": 2.37}
{"variant": "E19R", "protein stability index": 2.7}
{"variant": "E19L", "protein stability index": 2.29}
{"variant": "E19G", "protein stability index": 1.71}
{"variant": "E19K", "protein stability index": 1.91}
{"variant": "E19T", "protein stability index": 2.53}
{"variant": "E19I", "protein stability index": 1.63}
{"variant": "E19H", "protein stability index": 2.22}
{"variant": "L6V", "protein stability index": 3.51}
{"variant": "L6D", "protein stability index": 5.47}
{"variant": "L6A", "protein stability index": 4.45}
{"variant": "L6H", "protein stability index": 4.42}
{"variant": "L6Y", "protein stability index": 3.81}
{"variant": "L6Q", "protein stability index": 4.75}
{"variant": "L6M", "protein stability index": 3.75}
{"variant": "L6C", "protein stability index": 4.22}
{"variant": "L6N", "protein stability index": 4.55}
{"variant": "L7I", "protein stability index": 3.31}
{"variant": "L7H", "protein stability index": 4.27}
{"variant": "L7E", "protein stability index": 4.79}
{"variant": "L7C", "protein stability index": 3.56}
{"variant": "L7F", "protein stability index": 3.31}
{"variant": "E8S", "protein stability index": 2.62}
{"variant": "E8N", "protein stability index": 2.48}
{"variant": "E8A", "protein stability index": 2.15}
{"variant": "E8Y", "protein stability index": 1.78}
{"variant": "E8P", "protein stability index": 3.11}
{"variant": "E8H", "protein stability index": 2.43}
{"variant": "E8T", "protein stability index": 2.63}
{"variant": "E8R", "protein stability index": 2.03}
{"variant": "E8Q", "protein stability index": 2.67}
{"variant": "E8W", "protein stability index": 1.19}
{"variant": "K16S", "protein stability index": 2.91}
{"variant": "K16I", "protein stability index": 2.72}
{"variant": "K16D", "protein stability index": 3.54}
{"variant": "K16C", "protein stability index": 2.56}
{"variant": "K16Q", "protein stability index": 2.53}
{"variant": "K16Y", "protein stability index": 2.22}
{"variant": "K16H", "protein stability index": 2.87}
{"variant": "K16L", "protein stability index": 3.11}
{"variant": "K16E", "protein stability index": 2.68}
{"variant": "K16M", "protein stability index": 3.06}
{"variant": "K16N", "protein stability index": 3.29}
{"variant": "K16F", "protein stability index": 3}
{"variant": "A23E", "protein stability index": 2.91}
{"variant": "A23Q", "protein stability index": 3.69}
{"variant": "V3I", "protein stability index": 3.11}
{"variant": "V3Y", "protein stability index": 3.02}
{"variant": "V3C", "protein stability index": 3.84}
{"variant": "V3P", "protein stability index": 4.83}
{"variant": "V3F", "protein stability index": 2.97}
{"variant": "V3R", "protein stability index": 4.56}
{"variant": "V3D", "protein stability index": 5.21}
{"variant": "A9P", "protein stability index": 3.08}
{"variant": "A9M", "protein stability index": 2.22}
{"variant": "A9K", "protein stability index": 3.05}
{"variant": "A9F", "protein stability index": 2.32}
{"variant": "A9S", "protein stability index": 2.96}
{"variant": "A9D", "protein stability index": 3.09}
{"variant": "A9I", "protein stability index": 1.98}
{"variant": "H15P", "protein stability index": 2.33}
{"variant": "H15C", "protein stability index": 3.16}
{"variant": "H15I", "protein stability index": 2.56}
{"variant": "H15E", "protein stability index": 3.04}
{"variant": "H15M", "protein stability index": 2.42}
{"variant": "H15T", "protein stability index": 3.02}
{"variant": "H15V", "protein stability index": 2.69}
{"variant": "H15Q", "protein stability index": 3}
{"variant": "Q13L", "protein stability index": 2.03}
{"variant": "Q13T", "protein stability index": 3.83}
{"variant": "Q13M", "protein stability index": 2.25}
{"variant": "Q13N", "protein stability index": 2.86}
{"variant": "Q13G", "protein stability index": 2.78}
{"variant": "Q13K", "protein stability index": 2.92}
{"variant": "D18I", "protein stability index": 2.64}
{"variant": "D18C", "protein stability index": 2.01}
{"variant": "D18T", "protein stability index": 2.42}
{"variant": "D18W", "protein stability index": 2.44}
{"variant": "F5T", "protein stability index": 4.38}
{"variant": "F5D", "protein stability index": 4.92}
{"variant": "F5Q", "protein stability index": 4.22}
{"variant": "F5C", "protein stability index": 3.77}
{"variant": "F5S", "protein stability index": 4.56}
{"variant": "F5N", "protein stability index": 4.29}
{"variant": "E14K", "protein stability index": 2.76}
{"variant": "E14A", "protein stability index": 1.69}
{"variant": "E14Y", "protein stability index": 1.44}
{"variant": "E14I", "protein stability index": 1.28}
{"variant": "E14P", "protein stability index": 1.9}
{"variant": "E14W", "protein stability index": 1.67}
{"variant": "E14V", "protein stability index": 1.82}
{"variant": "E14C", "protein stability index": 1.5}
{"variant": "T22H", "protein stability index": 2.39}
{"variant": "T22W", "protein stability index": 1.91}
{"variant": "T22V", "protein stability index": 2.46}
{"variant": "T22G", "protein stability index": 3.23}
{"variant": "T22D", "protein stability index": 2.75}
{"variant": "T22A", "protein stability index": 2.77}
{"variant": "T22L", "protein stability index": 3.45}
{"variant": "T17Y", "protein stability index": 2.33}
{"variant": "T17H", "protein stability index": 2.55}
{"variant": "T17R", "protein stability index": 2.68}
{"variant": "T17Q", "protein stability index": 2.54}
{"variant": "T17W", "protein stability index": 2.19}
{"variant": "T17F", "protein stability index": 2.15}
{"variant": "R4G", "protein stability index": 3.86}
{"variant": "R4P", "protein stability index": 4.8}
{"variant": "R4A", "protein stability index": 2.99}
{"variant": "R4Q", "protein stability index": 3.61}
{"variant": "H21Y", "protein stability index": 2.41}
{"variant": "H21V", "protein stability index": 2.34}
{"variant": "H21D", "protein stability index": 2.96}
{"variant": "H21P", "protein stability index": 2.54}
{"variant": "H21N", "protein stability index": 3.05}
{"variant": "H21Q", "protein stability index": 3.55}
{"variant": "H21G", "protein stability index": 3.1}
{"variant": "H21L", "protein stability index": 2.66}
{"variant": "A11G", "protein stability index": 3.45}
{"variant": "A11H", "protein stability index": 3.22}
{"variant": "A11I", "protein stability index": 2.29}
{"variant": "A11P", "protein stability index": 3.73}
{"variant": "A11E", "protein stability index": 2.68}
{"variant": "A11Q", "protein stability index": 2.58}
{"variant": "A11M", "protein stability index": 1.87}
{"variant": "A11T", "protein stability index": 3.53}
{"variant": "A11R", "protein stability index": 3.02}
{"variant": "A11W", "protein stability index": 2.22}
{"variant": "D12P", "protein stability index": 2.25}
{"variant": "D12Q", "protein stability index": 2.66}
{"variant": "D12E", "protein stability index": 2.76}
{"variant": "D12L", "protein stability index": 1.09}
{"variant": "D12N", "protein stability index": 2.17}
{"variant": "G10Q", "protein stability index": 2.57}
{"variant": "G10T", "protein stability index": 2.27}
{"variant": "G10A", "protein stability index": 2.76}
{"variant": "G10R", "protein stability index": 1.67}
{"variant": "G10C", "protein stability index": 2.13}
{"variant": "G10K", "protein stability index": 2.57}
{"variant": "G10M", "protein stability index": 2.05}
{"variant": "G10I", "protein stability index": 1.98}
{"variant": "G10D", "protein stability index": 3.13}
{"variant": "G10F", "protein stability index": 2.18}
{"variant": "M20P", "protein stability index": 3.21}
{"variant": "M20E", "protein stability index": 2.94}
{"variant": "M20V", "protein stability index": 2.84}
{"variant": "M20Y", "protein stability index": 2.45}
{"variant": "E1M", "protein stability index": 1.97}
{"variant": "E1H", "protein stability index": 2.75}
{"variant": "E1Y", "protein stability index": 2.54}
{"variant": "E1P", "protein stability index": 4.17}
{"variant": "E1V", "protein stability index": 2.12}
{"variant": "E1S", "protein stability index": 3.41}
{"variant": "E1C", "protein stability index": 2.48}
{"variant": "M2C", "protein stability index": 3.4}
{"variant": "M2H", "protein stability index": 4.21}
{"variant": "M2Q", "protein stability index": 4.64}
{"variant": "M2A", "protein stability index": 3.71}
{"variant": "M2K", "protein stability index": 4.64}
{"variant": "M2S", "protein stability index": 4.63}
{"variant": "M2F", "protein stability index": 1.97}
{"variant": "M2R", "protein stability index": 4.21}
{"variant": "M2Y", "protein stability index": 2.81}
